Experimental data taken from article PMC3763551, “The tRNA recognition mechanism of the minimalist SPOUT methyltransferase, TrmL” (Nucleic Acids Research, 2013).

Tests used:
EcTrmL [1] = biological target: T1, EcTrmL (Escherichia coli, UniProt P0AGJ7, R129E); test: isothermal titration calorimetry, one-site model; type: binding
T1 construct: gene trmL

EcTrmL [2] = biological target: T2, EcTrmL (Escherichia coli, UniProt P0AGJ7, K81E); test: isothermal titration calorimetry, one-site model; type: binding
T2 construct: gene trmL

EcTrmL [3] = biological target: T3, EcTrmL (Escherichia coli, UniProt P0AGJ7, R46E); test: isothermal titration calorimetry, one-site model; type: binding
T3 construct: gene trmL

EcTrmL [4] = biological target: T4, EcTrmL (Escherichia coli, UniProt P0AGJ7, R104E); test: isothermal titration calorimetry, one-site model; type: binding
T4 construct: gene trmL

EcTrmL [5] = biological target: T5, EcTrmL (Escherichia coli, UniProt P0AGJ7, R45E); test: isothermal titration calorimetry, one-site model; type: binding
T5 construct: gene trmL

EcTrmL [6] = biological target: T6, EcTrmL (Escherichia coli, UniProt P0AGJ7, R43E); test: isothermal titration calorimetry, one-site model; type: binding
T6 construct: gene trmL

EcTrmL [7] = biological target: T7, EcTrmL (Escherichia coli, UniProt P0AGJ7, R20E); test: isothermal titration calorimetry, one-site model; type: binding
T7 construct: gene trmL

EcTrmL [8] = biological target: T8, EcTrmL (Escherichia coli, UniProt P0AGJ7, R59E); test: isothermal titration calorimetry, one-site model; type: binding
T8 construct: gene trmL

EcTrmL [9] = biological target: T9, EcTrmL (Escherichia coli, UniProt P0AGJ7, K42E); test: isothermal titration calorimetry, one-site model; type: binding
T9 construct: gene trmL

[10] = biological target: the molecule itself; test: SEC; analytical gel filtration, Superdex 75 (10/30), 20 mM Tris-HCl pH 7.5, 100 mM NaCl, 5 mM MgCl2, 5 mM beta-Me, 300 ul injected, 0.5 ml/min, against standard proteins
[11] = biological target: the molecule itself; test: not stated; oligomeric state of the purified Glu single mutants in solution; the method is not named for this statement

Row | Molecule | stoichiometry N [11] | further results
1 | Nc1ncnc2c1ncn2[C@@H]1O[C@H](CSCC[C@H](N)C(=O)O)[C@@H](O)[C@H]1O [SAH, S-adenosyl-homocysteine] | – | Kd (EcTrmL [1]): 19 µM; Kd (EcTrmL [2]): 30 µM; Kd (EcTrmL [3]): 29 µM; Kd (EcTrmL [4]): 33 µM; Kd (EcTrmL [5]): 29 µM; Kd (EcTrmL [6]): 39 µM; Kd (EcTrmL [7]): 45 µM; Kd (EcTrmL [8]): 27 µM; Kd (EcTrmL [9]): 20 µM
2 | tRNA (Um34/Cm34) methyltransferase TrmL from E. coli, wild type (enzyme, UniProt P0AGJ7 1-157, looked up, TrmL, tRNA (Um34/Cm34) methyltransferase, E. coli; gene amplified from the genome of E. coli MT102; 157 amino acids as printed; also called EcTrmL; Yibk; source: E. coli BL21 (DE3), pET30b, purified (Ni-NTA, Superdex 75 gel filtration)) MLNIVLYEPEIPPNTGNIIRLCANTGFRLHIIEPMGFAWDDKRLRRAGLDYHEFTAVTRHHDYRAFLEAENPQRLFALTTKGTPAHSAVSYQDGDYLMFGPETRGLPASILDALPAEQKIRIPMVPDSRSMNLSNAVSVVVYEAWRQLGYPGAVLRD | – | stoichiometry N [10]: 2
3 | EcTrmL-R64E (enzyme, E. coli, UniProt P0AGJ7 1-157, looked up, TrmL, E. coli, 157 amino acids, with R64E; source: E. coli BL21 (DE3), pET30b, purified (Ni-NTA, Superdex 75 gel filtration)) MLNIVLYEPEIPPNTGNIIRLCANTGFRLHIIEPMGFAWDDKRLRRAGLDYHEFTAVTRHHDYEAFLEAENPQRLFALTTKGTPAHSAVSYQDGDYLMFGPETRGLPASILDALPAEQKIRIPMVPDSRSMNLSNAVSVVVYEAWRQLGYPGAVLRD | 2 | –
4 | EcTrmL-R104E (enzyme, E. coli, UniProt P0AGJ7 1-157, looked up, TrmL, E. coli, 157 amino acids, with R104E; source: E. coli BL21 (DE3), pET30b, purified (Ni-NTA, Superdex 75 gel filtration)) MLNIVLYEPEIPPNTGNIIRLCANTGFRLHIIEPMGFAWDDKRLRRAGLDYHEFTAVTRHHDYRAFLEAENPQRLFALTTKGTPAHSAVSYQDGDYLMFGPETEGLPASILDALPAEQKIRIPMVPDSRSMNLSNAVSVVVYEAWRQLGYPGAVLRD | 2 | –
5 | EcTrmL-R129E (enzyme, E. coli, UniProt P0AGJ7 1-157, looked up, TrmL, E. coli, 157 amino acids, with R129E; source: E. coli BL21 (DE3), pET30b, purified (Ni-NTA, Superdex 75 gel filtration)) MLNIVLYEPEIPPNTGNIIRLCANTGFRLHIIEPMGFAWDDKRLRRAGLDYHEFTAVTRHHDYRAFLEAENPQRLFALTTKGTPAHSAVSYQDGDYLMFGPETRGLPASILDALPAEQKIRIPMVPDSESMNLSNAVSVVVYEAWRQLGYPGAVLRD | 2 | –
6 | EcTrmL-R45E (enzyme, E. coli, UniProt P0AGJ7 1-157, looked up, TrmL, E. coli, 157 amino acids, with R45E; source: E. coli BL21 (DE3), pET30b, purified (Ni-NTA, Superdex 75 gel filtration)) MLNIVLYEPEIPPNTGNIIRLCANTGFRLHIIEPMGFAWDDKRLERAGLDYHEFTAVTRHHDYRAFLEAENPQRLFALTTKGTPAHSAVSYQDGDYLMFGPETRGLPASILDALPAEQKIRIPMVPDSRSMNLSNAVSVVVYEAWRQLGYPGAVLRD | 2 | –
7 | EcTrmL-R28E (enzyme, E. coli, UniProt P0AGJ7 1-157, looked up, TrmL, E. coli, 157 amino acids, with R28E; source: E. coli BL21 (DE3), pET30b, purified (Ni-NTA, Superdex 75 gel filtration)) MLNIVLYEPEIPPNTGNIIRLCANTGFELHIIEPMGFAWDDKRLRRAGLDYHEFTAVTRHHDYRAFLEAENPQRLFALTTKGTPAHSAVSYQDGDYLMFGPETRGLPASILDALPAEQKIRIPMVPDSRSMNLSNAVSVVVYEAWRQLGYPGAVLRD | 2 | –
8 | EcTrmL-R20E (enzyme, E. coli, UniProt P0AGJ7 1-157, looked up, TrmL, E. coli, 157 amino acids, with R20E; source: E. coli BL21 (DE3), pET30b, purified (Ni-NTA, Superdex 75 gel filtration)) MLNIVLYEPEIPPNTGNIIELCANTGFRLHIIEPMGFAWDDKRLRRAGLDYHEFTAVTRHHDYRAFLEAENPQRLFALTTKGTPAHSAVSYQDGDYLMFGPETRGLPASILDALPAEQKIRIPMVPDSRSMNLSNAVSVVVYEAWRQLGYPGAVLRD | 2 | –
9 | EcTrmL-R74E (enzyme, E. coli, UniProt P0AGJ7 1-157, looked up, TrmL, E. coli, 157 amino acids, with R74E; source: E. coli BL21 (DE3), pET30b, purified (Ni-NTA, Superdex 75 gel filtration)) MLNIVLYEPEIPPNTGNIIRLCANTGFRLHIIEPMGFAWDDKRLRRAGLDYHEFTAVTRHHDYRAFLEAENPQELFALTTKGTPAHSAVSYQDGDYLMFGPETRGLPASILDALPAEQKIRIPMVPDSRSMNLSNAVSVVVYEAWRQLGYPGAVLRD | 2 | –
10 | EcTrmL-R46E (enzyme, E. coli, UniProt P0AGJ7 1-157, looked up, TrmL, E. coli, 157 amino acids, with R46E; source: E. coli BL21 (DE3), pET30b, purified (Ni-NTA, Superdex 75 gel filtration)) MLNIVLYEPEIPPNTGNIIRLCANTGFRLHIIEPMGFAWDDKRLREAGLDYHEFTAVTRHHDYRAFLEAENPQRLFALTTKGTPAHSAVSYQDGDYLMFGPETRGLPASILDALPAEQKIRIPMVPDSRSMNLSNAVSVVVYEAWRQLGYPGAVLRD | 2 | –
11 | EcTrmL-R43E (enzyme, E. coli, UniProt P0AGJ7 1-157, looked up, TrmL, E. coli, 157 amino acids, with R43E; source: E. coli BL21 (DE3), pET30b, purified (Ni-NTA, Superdex 75 gel filtration)) MLNIVLYEPEIPPNTGNIIRLCANTGFRLHIIEPMGFAWDDKELRRAGLDYHEFTAVTRHHDYRAFLEAENPQRLFALTTKGTPAHSAVSYQDGDYLMFGPETRGLPASILDALPAEQKIRIPMVPDSRSMNLSNAVSVVVYEAWRQLGYPGAVLRD | 2 | –
12 | EcTrmL-R59E (enzyme, E. coli, UniProt P0AGJ7 1-157, looked up, TrmL, E. coli, 157 amino acids, with R59E; source: E. coli BL21 (DE3), pET30b, purified (Ni-NTA, Superdex 75 gel filtration)) MLNIVLYEPEIPPNTGNIIRLCANTGFRLHIIEPMGFAWDDKRLRRAGLDYHEFTAVTEHHDYRAFLEAENPQRLFALTTKGTPAHSAVSYQDGDYLMFGPETRGLPASILDALPAEQKIRIPMVPDSRSMNLSNAVSVVVYEAWRQLGYPGAVLRD | 2 | –
13 | EcTrmL-K81E (enzyme, E. coli, UniProt P0AGJ7 1-157, looked up, TrmL, E. coli, 157 amino acids, with K81E; source: E. coli BL21 (DE3), pET30b, purified (Ni-NTA, Superdex 75 gel filtration)) MLNIVLYEPEIPPNTGNIIRLCANTGFRLHIIEPMGFAWDDKRLRRAGLDYHEFTAVTRHHDYRAFLEAENPQRLFALTTEGTPAHSAVSYQDGDYLMFGPETRGLPASILDALPAEQKIRIPMVPDSRSMNLSNAVSVVVYEAWRQLGYPGAVLRD | 2 | –
14 | EcTrmL-K42E (enzyme, E. coli, UniProt P0AGJ7 1-157, looked up, TrmL, E. coli, 157 amino acids, with K42E; source: E. coli BL21 (DE3), pET30b, purified (Ni-NTA, Superdex 75 gel filtration)) MLNIVLYEPEIPPNTGNIIRLCANTGFRLHIIEPMGFAWDDERLRRAGLDYHEFTAVTRHHDYRAFLEAENPQRLFALTTKGTPAHSAVSYQDGDYLMFGPETRGLPASILDALPAEQKIRIPMVPDSRSMNLSNAVSVVVYEAWRQLGYPGAVLRD | 2 | –
